Laboratory results: paper PMC3868940 (Nature methods, 2013)
Read-outs that look alike come from different tables or passages of the source. Blank lines part the entries; values can stand above or below the molecule they belong to.

What was measured:
Test in all cases: native MS
[1] = molecular target: sensory rhodopsin II (pSRII) from Natronomonas pharaonis, pSRII(1-241) (Natronomonas pharaonis) (UniProt P42196)
native MS [2] = molecular target: the molecule itself
native MS [3] = molecular target: the molecule itself; remark: listed apart in the source

stoichiometry N [1]: 2
Molecule: sensory rhodopsin II (pSRII) from Natronomonas pharaonis, pSRII(1-241) (from UniProt P42196 1-239) (receptor)

B1: Diacylglycerol Kinase (DgkA) from E. coli (enzyme, E. coli K12, UniProt P0ABN1 2-122, looked up)
chain: ANNTTGFTRIIKAAGYSWKGLRAAWINEAAFRQEGVAVLLAVVIACWLDVDAITRVLLISSVMLVMIVEILNSAIEAVVDRIGSEYHELSGRAKDMGSAAVLIAIIVAVITWCILLWSHFG
stoichiometry N (native MS [2]): 3 | stoichiometry N (native MS [3]): 2
